# Variants at the floor of the assay were thinned out.
# B1: TPR 5TU (parent)
# chain: GGAUCUUCUCGAUCUAACAAAAAAGACAAAUCUGCCACAAAGCUUGAGAGCAUCUUCGGAUGCAGAGGCGGCAGCCUUCGGUGGCGCGAUAGCGCCAACGUUCUCAACUAUGACACGCAAAACGCGUGCUCCGUUGAAUGGAGUUUAUCAUG
# Variants of: B1
# Assay: polymerase ribozyme fitness, log enrichment relative to wild type (log ratio); higher = more active; in vitro selection for triplet polymerase activity
# In short: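 Fitness is a logarithmic measure of how a genotype enriched relative to the wild type, with replicate averages weighted by inverse variance. The logarithm uses base 2, and enrichment came from Illumina sequencing of input and output libraries. Those libraries were PCR-built, transcribed mutants of each subunit of a heterodimeric triplet polymerase ribozyme, passed through one triplicate in vitro selection round that included frozen incubation at −7 °C, gel excision of extended constructs and streptavidin-bead capture. Genotypes were kept only if they had ≥10 input reads and ≥1 read per output.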
row,Variant,polymerase ribozyme fitness (log ratio)
1,GGAUCUUCUCGAUCUAACAAAUAAGACAAAUCUGCCACAAAGCUUGAGAGCAUAUUCGCAUGCAGAGGCGGCAGCCUUCGGUGGCGCGAUAGCGCCAACGUUCUCAACUAUGACACGCAAACCGCGUGCUCCGUUGAAUGAAGUUUAUCAUG,-0.175
2,GGAUCUUCUCGAUCUAACAAAUAAGACAAAUCUGCCACAAAGCUUGAGAGCAUCUUCGAAUGCAGAGGCGGCAGCCUUCGGUGGCGCGAUAGCGCCAACGAUCUCAACUAUGACACGCAAAACGCGUGCUCCGUUGAAUGGAGUUUAUCAUG,0.375
3,GGAUCUUCUCGAUCUAACAAAUAAUACAAAUCUGUCACAAAGCUUGAGAGCAUCUUCGGAUGCAGAGGCGGCAGCGUUCGGUGGCGCGAUAGCGCCAACGUUCUCAACUAUGACACGCAAAACGCUUGCUCCGUAGAAUGGAGUUUAUCAUG,≤ -4.2
4,GGAUCUUCUCGAUCUAACAAAUAAGACAAAUCUGCCACAAAGCUUGAGAGCAUCUUCGGAUGCAGAGGCGGCAGCCUUCGGUGGCGAGAUAGCGCCAAUGUUGUCAACUAUGACACGCAAAACGCGUGCUCCGUUGAAUGGCGUUUAUCAUG,≤ -4.2
5,GGAUCUUCUCGAUCUAACAAAUAAGACAAAUCUGCCACAAAGCUUGAGAGCAUCUUUGGAUGCAGAGGCGGCAGCCUUCGGUGGCGCGAUAGCGCCAACGUUCUCAACUAUGACACGCAAAACGCGUGCUCCGUUGAAUGGAGUUUAUCAUG,-0.0575
6,GGAUCUUCUCGAUCUAACAAAUAAGACAAAUCUGCCACAAAGCUUGAGAGCAUCUUAGGAUGCAGAGGCCGCAGCCUACAGUGGCGCGAUAGCGCCAACGUUCUCAACUAUGACACGCAAAACGCGUGCUCCGUUGAAUGGAGUUUAUCAUG,≤ -4.2
7,GGAUCUUCUCGAUCUAACAAAUAAGACAAAUCUGCCACAAAGCUUGAGAGCAUCUUCGGAUGCAGAGGCGGCAGCCUUCGGUGGGGCGAUAGCGCCAACGUUCUCAACUAUGACACGCAAAACGCGUGCUCCGUUGAAUGGAGUUUAUCAUG,-1.73
8,GGAUCUUCUCGAUCUAACAAAUAAGACAAAUCUGCCACAAAGCUUGAGAGCAUCUUCGGAUGCAGAGGCGGCAGCCUUCGGUGGUGCGAUAGCGCCAACGUUCUCAACUAUGACACGCAAAACGCGUGCUCCGGUGAAUGGACUUUAUAAUG,≤ -4.2
9,GGAUCUUCUCGAUCUAACAAAUAAGACAAAUCUGCCACAAAGCUUGAGAGCAUUUUCGGAUGCAGAGGCGGCAGCCUUCGGUGGCGCGAUAGCGCCAACGUUCUCAUCUAUGACACGCAAAACGCGUGCUCCGCUGAAUGGAGUCUAUCAUG,-4.02
10,GGAUCUUCUCGAUCUAACAAAUAAGACAAAUCUGCCACAAAGCUUGAGACCAUAUUCGGAUGGAGAGGCGGCAGCCUUCGGUGGCGCGAUAGCGCCAACGUUCUCUACUAUGACACGCGAAACGCGUGCUCCGUUGAAUGGAGUUUAUCAUG,-3.06
11,GGAUCUUCUCGAUCUAACAAAUAAGACAAAUCUGCCACAAAGCUUGAGAGCAUCUUCGGAUGCAGAGGCGGCAGCCUUCGGUGGCGCGAUAGCGCCAACGUUCUUAACUAUGACACGCAAAACGCGUGCUCCGUUCAAUGGAGUUUAUCAUG,-2.55
12,GGAUCUUCUCGAUCUAACAAAUAAGACAAAUCUGCCACAAAGCUUGAGAGCAUUUUCGGAUGCAGAGGCGGCAGCCUUCGGUGGCGCCAUAGCGCCAACGUUCUCGACUAUGACACGCAAAACGCGUGCUCCGUUGAAUGGAGUUAAUCAUG,≤ -4.2
13,GGAUCUUCUCGAUCUAACAAAUAAGACAAAUCUGCCACAAAGCUUGACAUCAUCUUCGGAUGCAGAGGCGGCAGCCUUCGGUGGCGCGAUAGCGCCAACGUUCUCAACUAUGACACGCAUAACGCGUGCUCCGUUGAAUGGAGUCUAUCAUG,-2.9
14,GGAUCUUCUCGAUCUAACAAAUAAGACAAAUCUGCCACAAAGCUUGAGACCAUCUUCGGAUGUAGAGGCGACAGCCUUCGGUGACGCGAUAGCGCCAACGUUCUCAACUAUGACACUCAAAUCGCGUGCUCCGUUGAAUGGAGUUUAUCAUG,-4
15,GGAUCUUCUCGAUCUAACAAAUAAGACAAAUCUACCACAAAGCUUGAGAGCAUCAUCGCAUGCAGAGGCGGCAGCCUUCGGUGGCGCGAUAGCGACAACGUUCUCAACUAUGACACGGAAAACGCGUGCUCCGUUGAAUGGAGUUUAUCAUG,-3.53
16,GGAUCUUCUCGAUCUAACAAAUAAGACAAAUCUGCCACAAAGCUUGAGAGCAUCUUCGGAUGCAGAGGCGGCAGCCUUCGGUGGCGGGAUAGCGCCAACGUUCAAAACUAUGACACGCAAAACGCGUGCUCCGUUGAAUGGAGUUUAUCAUG,≤ -4.2
17,GGAUCUUCUCGAUCUAACAAAUAAGACAAAUCUGCCACAAAGCUUGAGAGCAUCUUCGGAUGCAGAGUCGGCAACCUACGGUGGCGCGAUAACGCCAACGUUCUCAACUAUGACACGCAAAACGAGUGCUCCGUUGAAUUGAGUGUAUCAUG,≤ -4.2
18,GGAUCUUCUCGAUCUAACAAAUAAGACAAAUCUGCCACAAAGCUUGAGAGCAUCUUCGGAUGCAGAGGCGGCAGCCUUCGGUGGCGCGAUAGUGCCAACGUUCUCAACUAUGACACGCAAAACGCGUGCUCCGUUGAAUGGAGUUUAUCAUG,-1.47
19,GGAUCUUCUCGAUCUAACAAAUAAGACAAAUCUGCCACAAAGCUUGAGAGCAUCUUCGGAUGCAGAGGCGGCAGGUUUCGGUGGCGCGAUAGCCCCAACGUUCUCAACUUUGACACGCAAAACGCGUGCUCCGUUGAAUGGAGUUUUUCAUG,≤ -4.2

# Source: the RNAGym collection of RNA variant scans (doi:10.1073/pnas.2313332121)
